A short description of this data set: soluble on expression in E. coli; label from the status in PepcDB or PDB records.
With “MSLNVVKFGGSSLASAPQLQKVLQIVKEEPRRTFVVVSAPGKRTPQDIKVTDLLIQYYQRYLNNEEIESTISAIIRRYEDLFDELHLDKAVLADIAISIRQLATLPKENNAFLFDYFLASGEDNNAKVVASFFKQNGLDARYISPKELGLLVTPEPGNARILPKALEKISVYRETQQILVIPGFFGYTEAGEICTFSRGGSDITGSIVAAGVQADLYENFTDVDGIYVAHPGIIEQPQTIQELTYREMRELAYAGFAVLHDEALMPAYRANIPVVIKNTNNPHHPGTLITTSRKVKHAPVVGIASDQGFASIYISKYLMNRELGFGRRLLEVLEKLALSYEHMPSGIDDITIVLREDQLTTEIENRLMAQLQEVLAPDELRITHHLSMIMIVGEGMRQRIGVTAESTMALAKEKINLEMINQGSSEVSIMFGIKKEQEEKAIKALYRTFFHDEGHHHHHH”, the “soluble on expression in E. coli” value is “soluble”. In the case of “MGQLVDGVWHDTWYETKSTGGHFKRSESAFRNWVTPDGAPGLTGKGGFPAQSGRYHLYVSLACPWAHRTLLMRQLKGLEDHIAVSVVHPLMLDHGWTFGTDFEAATGDSLYQHEFLYQLYLHAKPDYSGRVTVPVLWDTEQHTVVSNESADIIRMLNSAFDGVGAIAGDYYPEALRTQIDELNSWIYDKVNNGVYKAGFATTQSAYDESASTVFAALSDLETILAKQRYLTGEQLTEADLRLWTTLIRFDPVYHTHFKCDKYRLSDYPNLFGFLRDIYQMPGIAETVDMAHIRHHYYRSHGLEHHHHHH” it was “not soluble”; in that of “MKYAVLIGDGMADYPIEELGSRTILQAARTPAMDSIAARGKTGLAKTVPEGFPPGSDVANMSIFGYDPAIYYSGRAPLEAASMGVALAADDVAFRCNLITIENGKIKDYSAGHISSDEAEILIDTLDSELRTEKVRFYPGISYRHLIVAGNDLGAETECLEHHHHHH”, “soluble”; in that of “MEFMSAPANAVAADDATAIALKYNQDATKSERVAAARPGLPPEEQHCANCQFMQADAAGATDEWKGCQLFPGKLINVNGWSASWTLKAG”, “soluble”. Regarding “MFCFLQLPYHPNSSVHISTIDRITNSGRLYQYYSAEMTAEVIDFTKRNLEEAMNHNERRLLFRRSRSEPMTLTNENITMTSRTDPEWNMTVDSISIQSSFAEYQHRRKERLKKQEAHKTSEISLSSGPSELAMKGHTDFDAAIEFLDNKMPSTLSLTDSDNSHSSNDITSSQAKEISYEDEMRLFIEKTGHLVTNVFADPFDSDERKSRTEMWVEASTENLAEGGTTSDDVPTEKELELDMENNDILAESVVGTGTGELNDEKDEETVPVGLIPPVARQSTEDSILSSNVTVNSLLKSKLTINLKEASEALSEIDIADVDRFWDYLYEKDDIQKFSDELIYPIKMEIPSTSSSERSIGIALSPIKLDFAGIHVQKTGKIEKHIKMNSNEEKDRELDEPLEITDQTVETRFFELETTKNLEKINRGTTTSEHGNILIKTTASQTPVSQEVVQLVNYEPINFTKAQSDRNFDEKENMIRAFSFKLSESFYKDLKILVVERDRAKEAMDILPAKTMKELSEECNYYQTRYRVRIEQNKEKLDRRIEEVWKKLLKMPIESQEVIDFISVAHSELLTLNARRNLPDNM”, the “soluble on expression in E. coli” value is “not soluble”. For “MSLGDVVMNERELILAIETSCDETSAAVIENGTTILSNVVSSQIDSHKRFGGVVPEIASRHHVEQITVIVEEAMHEAGVDFADLAAVAVTEGPGLVGALLIGVNAAKAIAFAHQLPLIGVHHIAGHIYANRLLKELEFPLLALVVSGGHTELIYMENHGEFEVIGETRDDAVGEAYDKVARTLGLPYPGGPHIDRLAVNGEDTLQFPRAWLEPDSFDFSFSGLKSAVINTLHNAKQRGENVQAEDVAASFQASVIDVLVTKTKKAAEEYKVRQVLLAGGVAANKGLRTALEEAFFKEPIDLVIPPLSLCTDNAAMIGAAASIKFKQQTFAGMDLNGQPSLELENDEGHHHHHH”, the “soluble on expression in E. coli” value was “soluble”. As to “TSLKQNQLNLSTLLVNPEGPTLTQLNSVQSSERPLFLVHPIEGSTTVFHSLAAKLSVPTYGLQCTQAAPLDSIPNLAAYYIDCIKQVQPEGPYRIAGYSFGACVAFEMCSQLQAQQGPAPTHNNLFLFDGSHTYVLAYTQSYRAKMTPGCEAEAEAEALCFFIKQFLDVEHSKVLEALLPLKSLEDRVAASVDLITKSHHSLDRRELSFAAVSFYHKLRAADQYKPKAKYHGNVTLLRAKTGGTYGEDLGADYNLSQVCDGKVSVHIIEGDHRTLLEGSGLESIINIIHSS”, the “soluble on expression in E. coli” value was “soluble”. Turning to “MAQGTVEARHGALDEAALGIGRWRWDLRSQELVWSEEERAIFGLAPGAPVPGFAAFSAMIHPDDRARVVAAVSETLAQRRLRHSIGFRILRPDGTMRQILSHGRLVMGLDGKPISLEGVDLDLT”, the “soluble on expression in E. coli” value is given as “not soluble”. In the case of “GSHMARGKLKAPKWPILKNLELLQAQNYSRNIKTFPYKELNKSMYYDKWVCMCRCEDGALHFTQLKDSKTITTITTPNPRTGGEHPAIISRGPCNRLLLLYPGNQITILDSKTNKVLREIEVDSANEIIYMYGHNEVNTEYFIWADNRGTIGFQSYEDDSQYIVHSAKSDVEYSSGVLHKDSLLLALYSPDGILDVYNLSSPDQASSRFPVDEEAKIKEVKFADNGYWMVVECDQTVVCFDLRKDVGTLAYPTYTIPEFKTGTVTYDIDDSGKNMIAYSNESNSLTIYKFDKKTKNWTKDEESALCLQSDTADFTDMDVVCGDGGIAAILKTNDSFNIVALTP” it was “soluble”; in that of “MANAADDRRPKYQRIADTLREAIRSGEYGPGDRLPGENDLMATHGVARMTARQALSVLRDEGVAEARKGAGVFVREFRPLRRRGIQRLARQQWGNGRSIWSADIEDRSLDVDQVTVSEEAAPDGVAAVLDLADGETVCVRRRRFVLDGKPVLLATSYLPAALVAGSAITQEDTGKGGTYARLAELGHGPVHFREEIRSRMPSKAEASQLSVAAGTPVILICRTAFTDEGRAVEINEMTLDAASYVLEYDFDA”, “not soluble”. Next, “MGSDKIHHHHHHMNMFSHINVDACKTPGCKNLGILGSPDYLPQGKNVLCRACGFLFPIISARSLNLFRQAANQPWKGLVKSCPHCGGTSLKKYGFSTKGERRMYCRQCNKTFISYTAIRSDARQENLATLIGEGASLVEIRAALAIDSTGFSRELQKLSRRANQAERDFVFPAFDIAMSTRAFRVKFNGGDSSLYVLVTAEEESGKVVAISTNYSAQPVEADYQYHSDYEERLPSGTLAHLVQRKEALTMRRNVLFDVDYGPAVLYKNDPGMLVKPVLPAYRHFELVQALTDERSLNVQHYLDHECFILGGCMMANFSYLRQGRCHISFVRERGVTPPKRDLPPRLFLSGGIRNNVWRTFSTRDYAMAVCNLTGNKKVSLLRHATLNSATAFIRYVHNHPFLPHLNRMSPGNVVAVLDYLKFEYNASRN”: “not soluble”; “MGSDKIHHHHHHMNADDAYKPIQRATLSEASWRILRIAQSVELRHPVSHETALAIWGVELPADSDCSVVSLRSSQGGYAGTDVDYGWSGESPAFGHSEHSIRLGQDFPDSDFQYFPDSQAVSRNQIPGLRQSASQPSQFPQSPAKLHTVAQSPARRGRVKKSTSVSADVTVHVWKGLSARHVREVAGVPVLMPVPAWSLAAGRWGIQDIVMVAESLIRHRFATRKGLIEFVKTESVPYRSKCLDALALVQSGSDSPKETEMRLTLVCYGLPIMQPNCVVPGVNFANGAAVTLDLVDAEHRFGLDYQGDHHRTDRAQYRRDQNKLSRLAAAGWTVFSVTQLDLSDELHRAAFAMNVAHALSSIVGRPIGVTTPLPWRKVVLRYRKARKLRLLD”: “not soluble”.

Consider “MSSHPLSISSLSPSYSHRPPGAEQHTVVAGRTSKSAREQCVQGQMVIMQPIRAFVDQHFRAFCQSVELYTISYFQMVPMNPELMHYPNQPHMMPGYPMINAYQQSYLQNPAQWTPEMLLCMQMQMQQMVPGTATNSTYMPPQSKNTVTPNATSPLSQISDRDSGNDTISPPLTSQNRYVFLLRGKKKSCAMFECLGGLYFMVQFVSRNT”, for which the “soluble on expression in E. coli” value is listed as “not soluble”.

“MTMNHDDRLRNRYEACRSGMQELDMLRAKHTLLIQNLRSRLPIIPGSLDDVQTREKKTRDVFLDRFSLQSVDSGISSQNTISSTRSSTPEDFKTSNRHSNIYENSSTTMNYSTFRKMSLESTHSSVSHSMQNDVEKTSFAPPVITSRSCHRGAWKTSPQRIRPKSMFDSTTSNTEYLFSKPPRHPIDLTKERRSAFTVLNQSSKRHSSIEPSLPSTLSQLSLNDEAKTPQKAEVIRWNKQKADAMFRANVVYVSSTEQPTKPAPLRFSPARSPPVRRALPIELKPTQHFAQPCKIRSPKLNTKTVFAAKPIAVRPSISPKVAQRSTWLQSQPL”: the “soluble on expression in E. coli” value is “not soluble”.

The values are drawn from the DeepSol protein solubility set.
